The target of test [1] is T1, proprotein convertase subtilisin/kexin type 9 (PCSK9) (UniProt Q8NBP7 31-692, limits assumed).
T1 construct: Analyte in solution in both CSOD and SPR; also called PCSK9 protein
As to the kind of experiment: CSOD; comparison of KD values of Table 2.

In test [2] the target is T1, proprotein convertase subtilisin/kexin …. As to the kind of experiment: CSOD; phage immobilised on fiber probe, PCSK9 in solution, global first-order fit.
Source text: The fiber probes were switched from a well containing a buffer to a well containing PCSK9 at 0 s for the measurement of the association process (downward facing arrow) and then switched back to the buffer well at the time indicated by the upward facing arrow for the measurement of the dissociation process.
The binding of different concentrations of PCSK9 proteins to the functionalized probes was studied in a 40-time diluted PBS buffer. For each measurement, a baseline was first established by dipping the functionalized fiber tip into a microplate well with a buffer; then, the fiber was switched to another well containing PCSK9 protein solution to measure the association curve. Finally, the fiber was moved back to the buffer well and the dissociation process was recorded. By fitting the kinetic curves at different concentrations globally with first order kinetics using Scrubber v.2.0c, the association rate constants (ka), dissociation rate constants (kd), and equilibrium constants (KD) for all samples are summarized in Table 2.

Where “and” joins values, the source holds several entries; their conditions need not be identical. Equal entries are not always repeated. No end group written: not given here.

What is called Kd is the free concentration of one partner at which half of the binding sites on the other are occupied at equilibrium, for simple one-to-one binding. Lower therefore signals higher affinity. Broadly, the koff is the rate constant with which the complex falls apart. Low values mean slow dissociation, high ones fast dissociation. By kon is commonly meant the rate constant with which the complex forms. Read a low kon as slow association.

T1 sequence (Q8NBP7 31-692 limits assumed): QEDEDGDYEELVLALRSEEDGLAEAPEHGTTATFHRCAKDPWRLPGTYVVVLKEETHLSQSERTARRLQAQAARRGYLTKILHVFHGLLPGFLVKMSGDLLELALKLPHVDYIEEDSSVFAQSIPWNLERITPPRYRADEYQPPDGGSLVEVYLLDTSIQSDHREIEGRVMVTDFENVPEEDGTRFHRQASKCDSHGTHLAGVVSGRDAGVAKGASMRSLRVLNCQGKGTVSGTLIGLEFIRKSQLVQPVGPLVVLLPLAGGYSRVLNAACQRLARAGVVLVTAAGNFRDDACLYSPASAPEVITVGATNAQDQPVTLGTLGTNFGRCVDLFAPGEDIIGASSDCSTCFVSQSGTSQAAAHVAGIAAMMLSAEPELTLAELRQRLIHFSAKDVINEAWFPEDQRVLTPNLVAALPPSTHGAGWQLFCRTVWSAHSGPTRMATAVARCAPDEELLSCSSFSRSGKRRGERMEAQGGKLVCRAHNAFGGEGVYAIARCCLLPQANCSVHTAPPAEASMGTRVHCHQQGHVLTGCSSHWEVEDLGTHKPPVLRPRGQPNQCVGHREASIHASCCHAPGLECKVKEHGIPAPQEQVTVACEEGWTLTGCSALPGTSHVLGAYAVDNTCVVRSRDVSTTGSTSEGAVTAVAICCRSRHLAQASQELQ

B1: SG pep2-8-2478 (M13 phage-displayed peptide, fused to pVIII) (peptide)
peptide: SGTVFTSWEEYLDWV
modifications: not fully specified
notes: Samples A and B are identical replicates prepared separately; also called Sample 5A; Sample 5B; not shown: M13 major coat protein pVIII (display carrier) and any linker between peptide and pVIII
On to B1, for which, in test [1], the “fold affinity change against Sample #4 (no SG pep2-8-2478)” value was about 2 fold. In test [2], the Kd was 370 nM and 380 nM; the off-rate constant (koff) was 0.00154 s⁻¹ and 0.00119 s⁻¹; the kon was 4200 M⁻¹ s⁻¹ and 3130 M⁻¹ s⁻¹.

The values are drawn from US20240272082A1 (ARIZONA BOARD OF REGENTS ON BEHALF OF ARIZONA STATE …, published 2024).
